Reference: the nanobody polyreactivity screen of Harvey et al. (2022)

Test: yeast display, Sf9 membrane polyspecificity reagent, FACS + sequencing; frameworks hold sequencing errors
Summary of the method: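 A nanobody's polyreactivity label depends on the gate it was sorted from. Yeast display cells were stained with 10% biotinylated, detergent-solubilized Sf9 membrane reagent for 1 hour at 4 °C, enriched on streptavidin microbeads and sorted by FACS. The low and high (top ~1%) gates were set on anti-HA fluorescence for expression and streptavidin fluorescence for reagent binding.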

Row | Sequence | polyreactivity (PSR sort gate)
1 | QVQLVDSGGGLVQAGGSLRISCAASGSIFPPYAMGWSRQAPGKERELVAAITYSGVRTYYADSVKGRFTISRDNAKNTVYLQMNSLKPEDTAVYYCAAVYRRGIGYPFGYWGQGTQVSVSS | high polyreactivity
2 | QVQLVDSGGGLVQAGGSLRLICAASGRIFIYNAMGWYRQAPGKERELVAAITRGGNTNYADSVKGRFTISRDNAKNTVYLQMNSLKPEDTAVYYCAAAIRYGSRHRGYWGQGTQVTVSS | low polyreactivity
3 | QVQLVDSGGGLVQAGGSLRLICAASGSTLGQYAMGWYRQAPGKERELVAAITARTGRTYYADSVKGRFTISRDNAKNTVYLQMNSMKPEDTAVYYCASVTFSYQDYYWGQGTQVTVSS | high polyreactivity
4 | QVQLVDSGGGLVQAGGSLRLICPASGSIFSTYAMGWYRQAPGKERELLAAINRGTSTNYADSVKGRFTISRDNAKNTVYLQMNCLKPEDTAVYYCAAYYRGRYGPRRSEYWGQGTQVTVSS | high polyreactivity
5 | QVQLVDSGGGLVQAGGSLRLSCAASAFIFTRYAMGWYRQAPGKERELVAAISWIGTSTYYADSVKGRFTISRDNAKNTVYLQMNSLKPEDTAVYYCAKRSTSQSLQGVYWGLGTQVTVSS | high polyreactivity
6 | QVQLVDSGGGLVQAGGSLRLSCAASGFIFKYYAMGWYRQEPGKERELVAAITIGGSTNYADSVKGRFTISRDNAKNTVYLQMNSLTPEDTAVYSCAADVQERYHRAWYDYWGQGTQVTVSS | low polyreactivity
7 | QVQLVDSGGGLVQAGGSLRLSCAASGFIFQANAMGWYRQAPGKERELVAAIDDGDSTYADSVKGRFTISRDNAKNTVYLQMNSLKPEDTAVYYCATRRNRSYDYWGQGTLVTVSS | low polyreactivity
8 | QVQLVDSGGGLVQAGGSLRLSCAASGFIFSSYAMVWYRQAPGKERELVAAISRSGGYTYYADSVKGRFTISRDNAKNTVYFQMNSLNAEDTAVYYCATRSYMPGVRRGYDYWGKGTQVTVSS | high polyreactivity
9 | QVQLVDSGGGLVQAGGSLRLSCAASGFILSRYTMGWYRQAPGKERELVATISSGGRTYYADSVKGRFTISRDNAKNTVYLQMNSLKPEDTAVYYCAAAYTYWRISGNRYLYDYWGQGTQVTVSS | high polyreactivity
10 | QVQLVDSGGGLVQAGGSLRLSCAASGFNFVFNAMGWYRQAPGKERELVAAINGGDITNYADSVKGRFTISRDNAKNTVYLQMNSLKPEDTAVYYCAADGEYSLWTGYDYDYWGQGTQVTVSS | low polyreactivity
11 | QVQLVDSGGGLVQAGGSLRLSCAASGFTFSAYAMGWYRQAPGKERELVAAISWSGSRTYYADSVKGRFTISRDNAKNTVYLQMNSLKPEDTAVYYCAKEPYDTFGFYEYDYWGQGTQVTVSS | low polyreactivity
12 | QVQLVDSGGGLVQAGGSLRLSCAASGFTFSTNAMGWYRQAPGKERELVAGITSSGGNTYYADSVKGRFTISRDNAKNTVYLQMNSLKPEDTAVYYCAKRRNYVAYDYWGQGTQVTVSS | high polyreactivity
13 | QVQLVDSGGGLVQAGGSLRLSCAASGFTFVYYVMGWYRQAPGKERQLVAAINAGGGSTYYADSVKGRFTISRDIAKYTVYLQMNSLKPEDTAVYYCNARVRVRLGRNWSSYYYWGQGTQVTVSS | high polyreactivity
14 | QVQLVDSGGGLVQAGGSLRLSCAASGFTFYLNTMGWYRQAPGKERELVAAIDLSDGTTYYADSVKGRFTISRDNAKNTVYLQMNSLKPEDTAVYYCAAESYEEWTSSGLDWTDDYWGQGTQVTVSS | high polyreactivity
15 | QVQLVDSGGGLVQAGGSLRLSCAASGGIFGYGMGWYRQAPGKERELVAAITRSGGSTSYADSVKGRFTISRDNAKYTVYLQMNSVKPEDTAVYFCASRTRYSRYKSGYWGQGTQVTVSS | high polyreactivity
16 | QVQLVDSGGGLVQAGGSLRLSCAASGGIFRQNVMGWYRQAPGKERELVAAISRRGGITYYAEAVKGRFTISRDNAKNTVYLQMNSLKPEDTAVYYCNKKPTWDYSYWGQGTQVTVSS | high polyreactivity
17 | QVQLVDSGGGLVQAGGSLRLSCAASGIIFHFNDLGLYIQAPGKERELVAAIDSTGSTNYSDSVKGRYTISRDNAKITVYLQLNRVKPEDTAVYNCAVLNHRVDAVLTRYYYWGQGTKVTVSS | low polyreactivity
